Measurements: paper PMC3982596

Target: YFP-LacI-HP1α (human) (UniProt P45973)
Sequence of UniProt P45973 (P45973 whole entry): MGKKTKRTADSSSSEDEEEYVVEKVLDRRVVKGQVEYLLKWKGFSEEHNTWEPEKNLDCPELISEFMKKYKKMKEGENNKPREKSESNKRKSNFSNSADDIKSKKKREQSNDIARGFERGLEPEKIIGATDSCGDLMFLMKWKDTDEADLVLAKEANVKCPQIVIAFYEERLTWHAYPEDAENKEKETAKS

percent of cells with the binder at the tethered locus (% of the cells): 18
Substance: CFP-NDR1 (from UniProt Q15208 1-465) (enzyme)
